How the values were obtained:
human CD22 [1] = target: T1, human CD22 (human, UniProt P20273 20-847); experiment: flow cytometry, Daudi cells, unconjugated Ab 3.3 µg/mL
T1 construct: Endogenous CD22 on human cell lines Daudi, Raji, Ramos, RL, REH and NALM-6; no signal peptide limits are stated; also called antigen CD22
Experimental: (§1) 6×10⁴˜1×10⁵ cells were seeded per well in a v-bottomed 96-well plate and incubated with 100 μl of the unconjugated Abs or the ADCs at titrated concentrations or isotype control antibody human IgG at 10 μg/mL. After 30-60 minutes of incubation at 4° C., cells were washed once with 200 μl FACS buffer (lx PBS containing 1% FBS), stained with 100 μl of 1 μg/ml goat F(ab′)2-anti-human IgG (H+L)-RPE (Southern Biotech, Cat. No. 2043-09) in FACS buffer and then incubated at 4° C. for 30˜60 min Cells were washed once with FACS buffer and analyzed by flow cytometer (BD LSR, BD Life Sciences).
The binding ability of hLL2-Cys variants with or without drug conjugation was evaluated in Daudi and REH cancer cells.

human CD22 [2] = target: T1, human CD22; experiment: flow cytometry, REH cells, unconjugated Ab 3.3 µg/mL
Experimental: as §1
(§2) In general, the site-specific conjugated hLL2-IgG4p ADCs retained antigen reactivity of antibody.

human CD22 [3] = target: T1, human CD22; experiment: flow cytometry, Daudi cells, unconjugated Ab 3.3 µg/mL; remark: listed apart in the source
Experimental: as §1, §2

human CD22 [4] = target: T1, human CD22; experiment: cell-based or functional assay
human CD22 [5] = target: T1, human CD22; experiment: flow cytometry, REH cells, Tap18Hr1 conjugate 3.3 µg/mL
Experimental: as §1, §2

human CD22 [6] = target: T1, human CD22; experiment: flow cytometry, Daudi cells, Tap18Hr1 conjugate 3.3 µg/mL
Experimental: as §1, §2

MFI (human CD22 [1]) | MFI (human CD22 [2]) | MFI (human CD22 [3]) | Binder | further results
1300 | – | – | hLL2-S157C-IgG1 (antibody, Position is EU numbering) heavy: not shown light: DIQLTQSPSSLSASVGDRVTMSCKSSQSVLYSANHKNYLAWYQQKPGKAPKLLIYWASTRESGVPSRFSGSGSGTDFTFTISSLQPEDIATYYCHQYLSSWTFGGGTKLEIKRTVAAPSVFIFPPSDEQLKSGTASVVCLLNNFYPREAKVQWKVDNALQSGNSQESVTEQDSKDSTYSLSSTLTLSKADYEKHKVYACEVTHQGLSSPVTKSFNRGEC | –
– | 81 | 792 | hLL2-IgG4p (antibody, also called hLL2-IgG4p Ab) heavy: not shown light: DIQLTQSPSSLSASVGDRVTMSCKSSQSVLYSANHKNYLAWYQQKPGKAPKLLIYWASTRESGVPSRFSGSGSGTDFTFTISSLQPEDIATYYCHQYLSSWTFGGGTKLEIKRTVAAPSVFIFPPSDEQLKSGTASVVCLLNNFYPREAKVQWKVDNALQSGNSQESVTEQDSKDSTYSLSSTLTLSKADYEKHKVYACEVTHQGLSSPVTKSFNRGEC | –
1440 | 139 | 1390 | hLL2-IgG1 (antibody, also called hLL2-IgG1 Ab; hLL2-wild type antibody) heavy: not shown light: DIQLTQSPSSLSASVGDRVTMSCKSSQSVLYSANHKNYLAWYQQKPGKAPKLLIYWASTRESGVPSRFSGSGSGTDFTFTISSLQPEDIATYYCHQYLSSWTFGGGTKLEIKRTVAAPSVFIFPPSDEQLKSGTASVVCLLNNFYPREAKVQWKVDNALQSGNSQESVTEQDSKDSTYSLSSTLTLSKADYEKHKVYACEVTHQGLSSPVTKSFNRGEC | –
– | – | – | hLL2-T169C-IgG4p-Tap18Hr1 (antibody, name in EU numbering, Tap18Hr1 linker-drug (monomethyl dolastatin 10) on the introduced Cys 169 (EU numbering); site-specific conjugation, DAR 1.58-2.01, also called hLL2-T169C-IgG4p Tap18Hr1 conjugate) heavy: not shown light: DIQLTQSPSSLSASVGDRVTMSCKSSQSVLYSANHKNYLAWYQQKPGKAPKLLIYWASTRESGVPSRFSGSGSGTDFTFTISSLQPEDIATYYCHQYLSSWTFGGGTKLEIKRTVAAPSVFIFPPSDEQLKSGTASVVCLLNNFYPREAKVQWKVDNALQSGNSQESVTEQDSKDSTYSLSSTLTLSKADYEKHKVYACEVTHQGLSSPVTKSFNRGEC | % inhibition, WST-1 cytotoxicity, Daudi cells, 1.1 µg/mL (human CD22 [4]): 67.2%; % inhibition, WST-1 cytotoxicity, Daudi cells, 3.3 µg/mL (human CD22 [4]): 70.8%; % inhibition, WST-1 cytotoxicity, NALM-6 cells, 10 ug/ml (human CD22 [4]): 68.2%; % inhibition, WST-1 cytotoxicity, REH cells, 10 ug/ml (human CD22 [4]): 42.6%; % inhibition, WST-1 cytotoxicity, Ramos cells, 1.1 µg/mL (human CD22 [4]): 89.6%; % inhibition, WST-1 cytotoxicity, Ramos cells, 3.3 µg/mL (human CD22 [4]): 93.3%; MFI (human CD22 [5]): 60; MFI (human CD22 [6]): 625
– | 70 | 681 | hLL2-S442C-IgG4p (antibody, name in EU numbering, Position is EU numbering) heavy: not shown light: DIQLTQSPSSLSASVGDRVTMSCKSSQSVLYSANHKNYLAWYQQKPGKAPKLLIYWASTRESGVPSRFSGSGSGTDFTFTISSLQPEDIATYYCHQYLSSWTFGGGTKLEIKRTVAAPSVFIFPPSDEQLKSGTASVVCLLNNFYPREAKVQWKVDNALQSGNSQESVTEQDSKDSTYSLSSTLTLSKADYEKHKVYACEVTHQGLSSPVTKSFNRGEC | –
1300 | – | – | hLL2-T169C-IgG1 (antibody, Position is EU numbering) heavy: not shown light: DIQLTQSPSSLSASVGDRVTMSCKSSQSVLYSANHKNYLAWYQQKPGKAPKLLIYWASTRESGVPSRFSGSGSGTDFTFTISSLQPEDIATYYCHQYLSSWTFGGGTKLEIKRTVAAPSVFIFPPSDEQLKSGTASVVCLLNNFYPREAKVQWKVDNALQSGNSQESVTEQDSKDSTYSLSSTLTLSKADYEKHKVYACEVTHQGLSSPVTKSFNRGEC | –
1150 | – | – | hLL2-S442C-IgG1 (antibody, Position is EU numbering) heavy: not shown light: DIQLTQSPSSLSASVGDRVTMSCKSSQSVLYSANHKNYLAWYQQKPGKAPKLLIYWASTRESGVPSRFSGSGSGTDFTFTISSLQPEDIATYYCHQYLSSWTFGGGTKLEIKRTVAAPSVFIFPPSDEQLKSGTASVVCLLNNFYPREAKVQWKVDNALQSGNSQESVTEQDSKDSTYSLSSTLTLSKADYEKHKVYACEVTHQGLSSPVTKSFNRGEC | –
1310 | – | – | hLL2-S165C-IgG1 (antibody, Position is EU numbering) heavy: not shown light: DIQLTQSPSSLSASVGDRVTMSCKSSQSVLYSANHKNYLAWYQQKPGKAPKLLIYWASTRESGVPSRFSGSGSGTDFTFTISSLQPEDIATYYCHQYLSSWTFGGGTKLEIKRTVAAPSVFIFPPSDEQLKSGTASVVCLLNNFYPREAKVQWKVDNALQSGNSQESVTEQDSKDSTYSLSSTLTLSKADYEKHKVYACEVTHQGLSSPVTKSFNRGEC | –
